According to patent US20240400686A1 (CITY OF HOPE, published 2024):
Where a chain is given by its changes, count along the chain named. Names and notes keep the numbering of the source. Like-named read-outs stand apart in the source and are kept apart here. Where no end group is shown, it is not given here. [ ]: non-standard residue; d: D form. pGlu = O=C1CC[C@@H](C(=O)O)N1

How the values were obtained:
Cyno CD3εδ = Cyno CD3εδ (cynomolgus monkey); assay: SPR, sensorgrams at 3-100 nM; set-up not given
Chain of Cyno CD3εδ (cynomolgus monkey) (Q95LI5 22-117, stated change not applied, chain 1 of 2): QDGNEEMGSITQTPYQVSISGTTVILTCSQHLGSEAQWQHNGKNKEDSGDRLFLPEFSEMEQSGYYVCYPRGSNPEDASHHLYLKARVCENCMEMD
Chain of Cyno CD3εδ (cynomolgus monkey) (Q95LI8 22-105, stated change not applied, chain 2 of 2, further chain): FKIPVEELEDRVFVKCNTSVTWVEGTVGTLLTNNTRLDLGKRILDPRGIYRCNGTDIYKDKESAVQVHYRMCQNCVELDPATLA

[1] = biological target: T1, CD3 epsilon N-terminal peptide (SEQ ID NO:13) (human and cynomolgus monkey (first …)); assay: SPR on a CD3 peptide, concentration series 3-300 nM (sensorgrams in FIG. 25B)
T1 construct: also called CD3 peptide; CD3 epsilon peptide
T1 peptide: [pGlu]DGNEEMGGITQTPYK

[2] = biological target: T1, CD3 epsilon N-terminal peptide (SEQ ID …); assay: SPR on a CD3 peptide, concentration series 3-300 nM
[3] = biological target: T1, CD3 epsilon N-terminal peptide (SEQ ID …); assay: SPR on a CD3 peptide, concentration series 3-300 nM (sensorgrams in FIG. 25A)
[4] = biological target: T1, CD3 epsilon N-terminal peptide (SEQ ID …); assay: SPR on a CD3 peptide, concentration series 3-300 nM
[5] = biological target: T1, CD3 epsilon N-terminal peptide (SEQ ID …); assay: as above
[6] = biological target: T2, recombinant human CD3epsilon/CD3gamma extracellular domain fused with human IgA1.Fc (human); assay: SPR, Biacore T200: human CD3-IgA immobilised on a CM5 chip, antibody as analyte
T2 construct: also called human CD3e/CD3g proteins; human CD3 proteins
Procedure: Binding affinities for the different antibodies of interest were measured by surface plasmon resonance (SPR), using a Biacore T200 (GE Healthcare). Human CD3-IgA was immobilized to 200 RU on a CM5 (GE Life Sciences) chip using NHS chemistry. Analytes (CD3 antibodies) were diluted 2× in concentrations (from 12.5 nM to 0.125 nM) and flown over chip at a flow rate of 30 µl/min with HBS-EP+ buffer. Data were analyzed using Biacore T200 Evaluation software v3.0.

B1: humanized 26H8 Fab (Fab, V domains shown)
VH: QVQLQESGPGLVKPSETLSLTCTASGYTFTNYYIHWVRQSPGKGLEWIGWIYCGDGSTKFNEQFKDRTTLSADHSKTQASLKLSSVTAADTAIYFCARDWAGSYFFDFWGQGTMVTVSS
VL: DIQMTQSPSSLSASVGDRVTITCKSSQSLLNSRTRKNYLAWYQQKPGKAPKLLIYWASTRESGVPSRFSGSGSGTDFTFTISSLQPEDIATYYCKQSYILRTFGGGTKVEIKR
notes: a Fab; also called h26H8 Fab; h26H8
B1 gave a Kd (Cyno CD3εδ) of 36 nM, a koff (Cyno CD3εδ) of 0.031 s⁻¹ and a kon (Cyno CD3εδ) of 870000 M⁻¹ s⁻¹. The Kd [1] was 51.6 nM, the koff [1] was 0.0322 s⁻¹ and the kon [1] was 623000 M⁻¹ s⁻¹.

B2: H26H8 Fab H35F (Fab, V domains shown)
VH: B1 VH with H35F
VL: B1 VL
notes: Fab' fragment; phenylalanine at position 35 of the heavy chain variable domain; also called h26H8 H35F; h26H8 H35F Fab'
B2: no binding (tested: 300 nM) [2].

B3: H26H8 Fab C53S (Fab, V domains shown)
VH: B1 VH with C53S
VL: B1 VL
notes: Fab' fragment; serine at position 53 of the heavy chain variable domain; also called h26H8 C53S
In the case of B3, the Kd [3] is reported as 116 nM, the koff [3] is reported as 0.0658 s⁻¹ and the kon [3] is reported as 569000 M⁻¹ s⁻¹.

B4: H26H8 Fab H35Y (Fab, V domains shown)
VH: B1 VH with H35Y
VL: B1 VL
notes: Fab' fragment; tyrosine at position 35 of the heavy chain variable domain; also called h26H8 H35Y; h26H8 H35Y Fab'
B4: no binding (tested: 300 nM) [4].

B5: H26H8 Fab Y33S (Fab, V domains shown)
VH: B1 VH with Y33S
VL: B1 VL
notes: Fab' fragment; serine at position 33 of the heavy chain variable domain; also called h26H8 Y33S; h26H8 Y33S Fab'
B5: no binding (tested: 300 nM) [5].

B6: antibody 3F11 (antibody, V domains shown)
VH: QVQLQQSGPDLVRPGASVKMSCKASGYTFTNYYVHWLNQRPGQGLEWIGWIYPGDGSTKFNEKFKGKTTLTADKSSSTAYILLSSLTSADSAIYFCTRDAGYYFDVWGAGTTVTVSS
VL: DIVMSQSPSSLAVSAGEKVTISCKSSQSLLNNRTRKNYLAWYQQKPGQSPKLLIYWASTRESGVPDRFTGSGSGTDFTLTISSVQAEDLAVYYCKQSYILRTFGGGTKLEIK
notes: Tested as mouse hybridoma antibody (culture supernatant or mAb); also called Clone 3F11
For B6, the koff [6] was 0.0034 s⁻¹ and the kon [6] was 1.12e+07 M⁻¹ s⁻¹.

B7: mouse antibody 26H8 (antibody, V domains shown)
VH: QVQLQQSGPELVKPGASVRMSCKASGYTFTNYYIHWVRQRPGQGLEWIGWIYCGDGSTKFNEQFKDRTTLTADHSSSTAYMLLSSLTSEDSAIYFCARDWAGSYFFDFWGQGTTLTVSS
VL: B6 VL with I21M, N32S
notes: Tested as mouse hybridoma antibody (culture supernatant or mAb); also called Clone 26H8; 261H8
B7 was tested, and the koff [6] was 0.00062 s⁻¹ and the kon [6] was 2.3e+06 M⁻¹ s⁻¹.
